Measured values: PMC9122904, “Insights into the client protein release mechanism of the ATP-independent chaperone Spy” (Nature Communications, 2022)
Residue numbers refer to the chain shown, from its start. Names and notes keep the numbering of the source.

How the values were obtained:
Assay in all cases: BLI; Octet RED96; client biotinylated and loaded on streptavidin sensors; Spy or Spy variant in solution at 0.25, 0.5, 1, 1.5 and 2 μM; 40 mM HEPES, 150 mM NaCl, pH 7.5; Kd calculated as koff/kon
Details in all cases: both partners purified
[1] = target: T1, Spy_(29-124) R43D (UniProt P77754 52-147, R43D)
T1 construct: source: E. coli BL21 (DE3), purified (Ni-NTA, cation exchange, SEC); not shown: His6, N-terminal, cleaved; SUMO, N-terminal, cleaved
T1 sequence (looked up): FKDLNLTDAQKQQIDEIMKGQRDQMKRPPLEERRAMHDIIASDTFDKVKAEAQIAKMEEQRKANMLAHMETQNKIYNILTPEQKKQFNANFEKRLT

[2] = target: T2, Spy_(29-124) K75D (UniProt P77754 52-147, K75D)
T2 construct: source: E. coli BL21 (DE3), purified (Ni-NTA, cation exchange, SEC); not shown: His6, N-terminal, cleaved; SUMO, N-terminal, cleaved
T2 sequence (looked up): T1 sequence (looked up) with D15R, K47D

[3] = target: T3, Spy_(29-124) R61D R62D (UniProt P77754 52-147, R61D | R62D)
T3 construct: source: E. coli BL21 (DE3), purified (Ni-NTA, cation exchange, SEC); not shown: His6, N-terminal, cleaved; SUMO, N-terminal, cleaved
T3 sequence (looked up): T1 sequence (looked up) with D15R, R33D, R34D

[4] = target: T4, Spy_(29-124) R89D (UniProt P77754 52-147, R89D)
T4 construct: source: E. coli BL21 (DE3), purified (Ni-NTA, cation exchange, SEC); not shown: His6, N-terminal, cleaved; SUMO, N-terminal, cleaved
T4 sequence (looked up): T1 sequence (looked up) with D15R, R61D

[5] = target: T5, Spy_(29-124) K54D R55D (UniProt P77754 52-147, K54D | R55D)
T5 construct: source: E. coli BL21 (DE3), purified (Ni-NTA, cation exchange, SEC); not shown: His6, N-terminal, cleaved; SUMO, N-terminal, cleaved
T5 sequence (looked up): T1 sequence (looked up) with D15R, K26D, R27D

[6] = target: T6, Spy_(29-124) K121D R122D (UniProt P77754 52-147, K121D | R122D)
T6 construct: source: E. coli BL21 (DE3), purified (Ni-NTA, cation exchange, SEC); not shown: His6, N-terminal, cleaved; SUMO, N-terminal, cleaved
T6 sequence (looked up): T1 sequence (looked up) with D15R, K93D, R94D

[7] = target: T7, Spy_(29-124) R50D (UniProt P77754 52-147, R50D)
T7 construct: source: E. coli BL21 (DE3), purified (Ni-NTA, cation exchange, SEC); not shown: His6, N-terminal, cleaved; SUMO, N-terminal, cleaved
T7 sequence (looked up): T1 sequence (looked up) with D15R, R22D

[8] = target: T8, Spy D26R (UniProt P77754 24-161, D26R)
T8 construct: source: E. coli BL21 (DE3), purified (Ni-NTA, cation exchange, SEC); not shown: His6, N-terminal, cleaved; SUMO, N-terminal, cleaved
T8 sequence (looked up): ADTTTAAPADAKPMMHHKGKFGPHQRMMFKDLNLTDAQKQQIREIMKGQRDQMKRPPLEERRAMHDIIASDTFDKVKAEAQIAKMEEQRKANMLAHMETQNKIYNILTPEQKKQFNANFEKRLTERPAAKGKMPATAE

[9] = target: T9, Spy D26A (UniProt P77754 24-161, D26A)
T9 construct: source: E. coli BL21 (DE3), purified (Ni-NTA, cation exchange, SEC); not shown: His6, N-terminal, cleaved; SUMO, N-terminal, cleaved
T9 sequence (looked up): T8 sequence (looked up) with R26A

[10] = target: T10, Spy D26E (UniProt P77754 24-161, D26E)
T10 construct: source: E. coli BL21 (DE3), purified (Ni-NTA, cation exchange, SEC); not shown: His6, N-terminal, cleaved; SUMO, N-terminal, cleaved
T10 sequence (looked up): T8 sequence (looked up) with R26E

B1: Im7 H40W L53A I54A (natural protein)
chain: MELKNSISDYTEAEFVQLLKEIEKENVAATDDVLDVLLEWFVKITEHPDGTDAAYYPSDNRDDSPEGIVKEIKEWRAANGKPGFKQG
modifications: biotin (EZ-link NHS-biotin, 1:1 molar ratio of biotin to protein)
notes: Im7 (colicin E7 immunity protein) with H40W L53A I54A; Spy was made with an N-terminal His6-SUMO tag that was cleaved; also called Im7AAW; partially folded client; source: purified by a similar procedure to Spy
- koff [1]: 0.601 s⁻¹
- koff [2]: 0.0712 s⁻¹
- koff [3]: 0.262 s⁻¹
- koff [4]: 0.125 s⁻¹
- koff [5]: 0.239 s⁻¹
- koff [6]: 0.349 s⁻¹
- koff [7]: 0.477 s⁻¹
- koff [8]: 0.0811 s⁻¹
- koff [9]: 0.0876 s⁻¹
- koff [10]: 0.196 s⁻¹
